In publication PMC3765907, “S-Nitrosylation of parkin as a novel regulator of p53-mediated neuronal cell death in sporadic Parkinson’s disease”:

Target: parkin (wild-type, GST-tagged) (UniProt O60260 1-465)
Assay: EMSA; parkin 100 nM to 1 uM, 0.1 nM probe; shift increases with parkin; 1x binding buffer (Panomics), room temperature, 20 min; 0.1 nM biotin probe, 1 uM parkin (100 nM-1 uM titration); 6% PAGE in 0.5x TBE pH 8.3; salt not stated
Conditions: protein: recombinant; tags: GST; label: 5' biotin; blunt

Chain of parkin (wild-type, GST-tagged) (O60260 whole entry): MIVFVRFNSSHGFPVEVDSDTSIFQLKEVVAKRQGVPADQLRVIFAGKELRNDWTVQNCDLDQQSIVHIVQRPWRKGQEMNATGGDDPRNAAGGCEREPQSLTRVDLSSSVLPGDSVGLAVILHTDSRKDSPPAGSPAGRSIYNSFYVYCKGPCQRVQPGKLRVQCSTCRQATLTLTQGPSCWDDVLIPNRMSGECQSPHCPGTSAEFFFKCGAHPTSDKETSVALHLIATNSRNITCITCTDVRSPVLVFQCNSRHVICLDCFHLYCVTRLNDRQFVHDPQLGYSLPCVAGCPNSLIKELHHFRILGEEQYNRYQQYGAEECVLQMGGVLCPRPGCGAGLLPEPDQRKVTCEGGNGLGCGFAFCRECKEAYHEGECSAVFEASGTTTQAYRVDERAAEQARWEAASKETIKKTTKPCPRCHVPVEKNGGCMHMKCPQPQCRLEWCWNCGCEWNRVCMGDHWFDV

B1: Pp53 (human p53 promoter probe) (dsDNA)
DNA 1: GGCACCAGGTCGGCGAGAATCCTGACTCTGCACCCTCCTCCCCAACTCCATTTCCTTTGCTTCCTCCGGC
DNA 2: GCCGGAGGAAGCAAAGGAAATGGAGTTGGGGAGGAGGGTGCAGAGTCAGGATTCTCGCCGACCTGGTGCC
- binding result: binds
